From the supplement of paper PMC7877785
± gives the uncertainty stated by the source.

Test: self-splicing fitness, log relative to wild type (ln ratio); higher = more splicing; Tetrahymena group I intron in knt gene, E. coli kanamycin selection, DiMSum; sequences stand for … in CUCUCU…GGAGGGAAAAGUUAUCAGGCAUGCACCUGGUAGCUAGUCUUUAAACCAAUAGAUUGCAUCGGUUUAAAAGGCAAGACCGUCAAAUUGCGGGAAAGGGGUCAACAGCCGUUCAGUACCAAGUCUCAGGGGAAACUUUGAGAUGGCCUUGCAAAGGGUAUGGUAAUAAGCUGACGGACAUGGUCCUAACCACGCAGCCAAGUCCUAAGUCAACAGAUCUUCUGUUGAUAUGGAUGCAGUUCACAGACUAAAUGUCGGUCGGGGAAGAUGUAUUCUUCUCAUAAGAUAUAGUCGGACCUCUCCUUAAUGGGAGCUAGCGGAUGAAGUGAUGCAACACUGGAGCCGCUGGGAACUAAUUUGUAUGCGAAAGUAUAUUGAUUAGUUUUGGAGUACUCGUGGUCG
In short: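 Library with all eight P1ex-region intron nucleotides randomised, intron inside the knt kanamycin-resistance gene on pET-22b(+), in E. coli BL21(DE3). Cells grew overnight at 37°C or 30°C on LB agar with or without 25 μg/mL kanamycin (plus 100 μg/mL carbenicillin, 50 μM IPTG, 0.2% rhamnose), in six replicate transformations. Pooled colonies were amplicon-sequenced on Illumina HiSeq 2500. DiMSum fitness is the error-weighted combination of wild-type-normalised replicate fold changes, kanamycin versus none.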

Sequence | self-splicing fitness (ln) (30 °C) | self-splicing fitness (ln) (37 °C)
CCCUAGCAAUAUUACGAACG | -3 ± 0.21 | -2.59 ± 0.29
CCCUAGCAAUAUUACGAAUG | -4.25 ± 0.46 | 
CCCUAGCAAUAUUACGAGAG | -3.79 ± 0.3 | -2.5 ± 0.23
CCCUAGCAAUAUUACGAGCU | -4.02 ± 0.24 | -1.87 ± 0.2
CCCUAGCAAUAUUACGAGGG | -4.35 ± 0.46 | -2.09 ± 0.23
CCCUAGCAAUAUUACGAGUC | -3.63 ± 0.21 | -2.28 ± 0.27
CCCUAGCAAUAUUACGAUAA | -4.04 ± 0.22 | -2.48 ± 0.22
CCCUAGCAAUAUUACGCGAG | -3.61 ± 0.19 | -3.25 ± 0.21
CCCUAGCAAUAUUACGCGCG | -3.46 ± 0.16 | -3.35 ± 0.27
CCCUAGCAAUAUUACGCUAA | -4.17 ± 0.3 | -2.55 ± 0.22
CCCUAGCAAUAUUACGGCAA | -3.66 ± 0.22 | -3.15 ± 0.18
CCCUAGCAAUAUUACGGCAG | -3.47 ± 0.22 | -2.75 ± 0.22
CCCUAGCAAUAUUACGGCGA | -2.43 ± 0.13 | -2.19 ± 0.17
CCCUAGCAAUAUUACGGCGC | -3.55 ± 0.21 | -3.28 ± 0.24
CCCUAGCAAUAUUACGGGAU | -3.82 ± 0.21 | -3.12 ± 0.26
CCCUAGCAAUAUUACGGUAA | -2.69 ± 0.21 | -3.02 ± 0.32
CCCUAGCAAUAUUACGGUCU | -3.61 ± 0.21 | -1.72 ± 0.17
CCCUAGCAAUAUUACGUACA | -2.75 ± 0.19 | -2.87 ± 0.22
CCCUAGCAAUAUUACGUGUC | -3.29 ± 0.13 | -2.97 ± 0.19
CCCUAGCAAUAUUACGUUGU | -3.84 ± 0.16 | -3.27 ± 0.16
CCGAAGCAAUAUUACGAACA |  | -2.58 ± 0.41
CCGAAGCAAUAUUACGAACG | -0.139 ± 0.077 | 0.554 ± 0.1
CCGAAGCAAUAUUACGAAUC | -4.12 ± 0.32 | -3.04 ± 0.48
CCGAAGCAAUAUUACGAGAU | -3.31 ± 0.17 | -2.43 ± 0.21
CCGAAGCAAUAUUACGCCUG | -1.04 ± 0.094 | -1.17 ± 0.11

Sequence | self-splicing fitness (ln) (30 °C) | self-splicing fitness (ln) (37 °C)
CCGAAGCAAUAUUACGCGAA |  | -2.24 ± 0.2
CCGAAGCAAUAUUACGCUCG | -1.57 ± 0.18 | -1.53 ± 0.21
CCGAAGCAAUAUUACGGCCC | -3.55 ± 0.3 | -1.71 ± 0.38
CCGAAGCAAUAUUACGGCGC | -4.16 ± 0.36 | -2.63 ± 0.49
CCGAAGCAAUAUUACGGCUU | -3.9 ± 0.29 | -3.29 ± 0.32
CCGAAGCAAUAUUACGGGAC | -4.02 ± 0.26 | -3.3 ± 0.26
CCGAAGCAAUAUUACGGGGA | -3.16 ± 0.19 | -2.96 ± 0.19
CCGAAGCAAUAUUACGGGGU | -4.25 ± 0.22 | -2.6 ± 0.21
CCGAAGCAAUAUUACGGGUA | -4.26 ± 0.3 | -2.35 ± 0.22
CCGAAGCAAUAUUACGGUAC |  | -1.85 ± 0.25
CCGAAGCAAUAUUACGGUCG | -0.661 ± 0.11 | -0.369 ± 0.14
CCGAAGCAAUAUUACGUAAG | -0.257 ± 0.055 | 0.2 ± 0.073
CCGAAGCAAUAUUACGUCGA | -2.38 ± 0.17 | -1.74 ± 0.12
CCGAAGCAAUAUUACGUUGA | -3.76 ± 0.15 | -3.45 ± 0.17
CCGCAGCAAUAUUACGAAGA | -2.83 ± 0.26 | -2.57 ± 0.24
CCGCAGCAAUAUUACGACGG | -2.83 ± 0.11 | -2.64 ± 0.19
CCGCAGCAAUAUUACGACUA | -3.8 ± 0.34 | -3.46 ± 0.29
CCGCAGCAAUAUUACGACUC | -3.06 ± 0.23 | -2.02 ± 0.26
CCGCAGCAAUAUUACGAUCA | -2.72 ± 0.22 | -1.85 ± 0.27
CCGCAGCAAUAUUACGAUUC | -3.56 ± 0.19 | -3.03 ± 0.21
CCGCAGCAAUAUUACGCACC | -3.46 ± 0.23 | -2.05 ± 0.24
CCGCAGCAAUAUUACGCCGG | -3.15 ± 0.38 | -3 ± 0.43
CCGCAGCAAUAUUACGCGGU | -3.18 ± 0.16 | -2.5 ± 0.22
CCGCAGCAAUAUUACGCUAA | -3.22 ± 0.22 | -2.55 ± 0.23
